B1: library; numbered along this chain (parent)
chain: MRKPRAAVGSGHRKQAASQEGRQKHAKNNSQAKPSACDGLARQPEEVVLQASVSSYHLFRDVAEVTAFRGSLLSWYDQEKRDLPWRRRAEDEMDLDRRAYAVWVSEVMLQQTQVATVINYYTGWMQKWPTLQDLASASLEEVNQLWAGLGYYSRGRRLQEGARKVVEELGGHMPRTAETLQQLLPGVGRYTAGAIASIAFGQATGVVDGNVARVLCRVRAIGADPSSTLVSQQLWGLAQQLVDPARPGDFNQAAMELGATVCTPQRPLCSQCPVESLCRARQRVEQEQLLASGSLSGSPDVEECAPNTGQCHLCLPPSEPWDQTLGVVNFPRKASRKPPREESSATCVLEQPGALGAQILLVQRPNSGLLAGLWEFPSVTWEPSEQLQRKALLQELQRWAGPLPATHLRHLGEVVHTFSHIKLTYQVYGLALEGQTPVTTVPPGARWLTQEEFHTAAVSTAMKKVFRVYQGQQPGTCMGSKRSQVSSPCSRKKPRMGQQVLDNFFRSHISTDAHSLNSAAQ

Variants of: B1
Assay: 8OG:A repair function score (normalized; synonymous = 0, nonsense = -1) (normalized log-likelihood score); higher = more repair activity (WT-like)
Conditions: with 8OG:A DNA repair reporter (GFP) in HEK-293 MUTYH KO cells
Description: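 Saturation mutagenesis (NNN codon scan) of the MUTYH cDNA (521-aa nuclear isoform NM_001048174.1 / NP_001041639), stably expressed under doxycycline induction in HEK-293 MUTYH knockout cells. Cells were co-transfected with an 8OG:A-bearing GFP repair reporter plus mCherry and sorted 72 h later into GFP+ and GFP− bins, three replicates per tile. The Rosace log2 enrichment (GFP+ vs GFP−) was converted per tile to a normalized function score with synonymous variants centered at 0 and nonsense variants (codons 1-471) at -1; low-abundance variants were removed.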

| Variant | 8OG:A repair function score |
| --- | --- |
| MRKPRAAVGSGHRKQAASQEGRQKHAKNNSQAKPSACDGLARQPEEVVLQASVSSYHLFRDVAEVTAFRGSLLSWYDQEKRDLPWRRRAEDEMDLDRRAYAVWVSEVMLQQTQVATVINYYTGWMQKWPTLQDLASASLEEVNQLWAGLGYYSRGRRLQEGARKVVEELGGHMPRTAETLQQLLPGVGRYTAGAIASIAFGQATGVVDGNVARVLCRVRAIGADPSSTLVSQQLWGLAQQLVDPARPGDFNQAAMELGATVCTPQRPLCSQCPVESLCRARQRVEQEQLLASGSLSGSPDVEECAPNTGQCHLCLPPSEPWDQTLGVVNFPRKASRKPPREESSATCVLEQPGALGAQILLVQRPNSGLRAGLWEFPSVTWEPSEQLQRKALLQELQRWAGPLPATHLRHLGEVVHTFSHIKLTYQVYGLALEGQTPVTTVPPGARWLTQEEFHTAAVSTAMKKVFRVYQGQQPGTCMGSKRSQVSSPCSRKKPRMGQQVLDNFFRSHISTDAHSLNSAAQ [L370R] | -0.775 |
| MRKPRAAVGSGHRKQAASQEGRQKHAKNNSQAKPSACDGLARQPEEVVLQASVSSYHLFRDVAEVTAFRGSLLSWYDQEKRDLPWRRRAEDEMDLDRRAYAVWVSEVMLQQTQVATVINYYTGWMQKWPTLQDLASASLEEVNQLWAGLGYYSRGRRLQEGARKVVEELGGHMPRTAETLQQLLPGVGRYTAGAIASIAFGQATGVVDGNVARVLCRVRAIGADPSSTLVSQQLWGLAQQLVDPARPGDFNQAAMELGATVCTPQRPLCSQCPVESLCRARQRVEQEQLLASGSLSGSPDVEECAPNTGQCHLCLPPSEPWDQTLGVVNFPRKASRKPPREESSATCVLEQPGALGAQILLVQRPNSGLLAGLWEFPSVTWEPSEQLQRKALLQELQRWAGPLPATHLRHLGEVVHTFSHIKLTYQVYGLALEGQTPVTTVPPGPRWLTQEEFHTAAVSTAMKKVFRVYQGQQPGTCMGSKRSQVSSPCSRKKPRMGQQVLDNFFRSHISTDAHSLNSAAQ [A445P] | -0.65 |
| MRKPRAAVGSGHRKQAASQEGRQKHAKNNSQAKPSACDGLARQPEEVVLQASVSSYHLFRDVAEVTAFRGSLLSWYDQEKRDLPWRRRAEDEMDLDRRAYAVWVSEVMLQQTQVATVINYYTGWMWKWPTLQDLASASLEEVNQLWAGLGYYSRGRRLQEGARKVVEELGGHMPRTAETLQQLLPGVGRYTAGAIASIAFGQATGVVDGNVARVLCRVRAIGADPSSTLVSQQLWGLAQQLVDPARPGDFNQAAMELGATVCTPQRPLCSQCPVESLCRARQRVEQEQLLASGSLSGSPDVEECAPNTGQCHLCLPPSEPWDQTLGVVNFPRKASRKPPREESSATCVLEQPGALGAQILLVQRPNSGLLAGLWEFPSVTWEPSEQLQRKALLQELQRWAGPLPATHLRHLGEVVHTFSHIKLTYQVYGLALEGQTPVTTVPPGARWLTQEEFHTAAVSTAMKKVFRVYQGQQPGTCMGSKRSQVSSPCSRKKPRMGQQVLDNFFRSHISTDAHSLNSAAQ [Q126W] | -0.256 |
| MRKPRAAVGSGHRKQAASQEGRQKHAKNNSQAKPSACDGLARQNEEVVLQASVSSYHLFRDVAEVTAFRGSLLSWYDQEKRDLPWRRRAEDEMDLDRRAYAVWVSEVMLQQTQVATVINYYTGWMQKWPTLQDLASASLEEVNQLWAGLGYYSRGRRLQEGARKVVEELGGHMPRTAETLQQLLPGVGRYTAGAIASIAFGQATGVVDGNVARVLCRVRAIGADPSSTLVSQQLWGLAQQLVDPARPGDFNQAAMELGATVCTPQRPLCSQCPVESLCRARQRVEQEQLLASGSLSGSPDVEECAPNTGQCHLCLPPSEPWDQTLGVVNFPRKASRKPPREESSATCVLEQPGALGAQILLVQRPNSGLLAGLWEFPSVTWEPSEQLQRKALLQELQRWAGPLPATHLRHLGEVVHTFSHIKLTYQVYGLALEGQTPVTTVPPGARWLTQEEFHTAAVSTAMKKVFRVYQGQQPGTCMGSKRSQVSSPCSRKKPRMGQQVLDNFFRSHISTDAHSLNSAAQ [P44N] | -0.0778 |
| MRKPRAAVGSGHRKQAASQEGRQKHAKNNSQAKPSACDGLARQPEEVVLQASVSSYHLFRDVAEVTAFRGSLLSWYDQEKRDLPWRRRAEDEMDLDRRAYAVWVSEVMLQQTQVATVINYYTGWMQKWPTLQDLASASLEEVNQLWAGLGYYSRGRRLQEGARKVVEELGGHMPRTAETLQQLLPGVGRYTAGAIASIAFGQATGVVDGNVARVLCRVRAIGADPSSTLVSQQLWGLAQQLVDPARPGDFNQAAMELGATVCTPQRPLCSQCPVESLCRARQRVEQEQLLASGSLSGSPDVEECAPNTGQCHLCLPPSEPWDQTLGVVNFPRKASRKPPREESSATCVLEQPGALGAQILLVQRPNSGLLAGLWEFPSVTWEPSEQLQRKALLQELQRWAGPLPATHLRHLGEVVHTFSHIKLTFQVYGLALEGQTPVTTVPPGARWLTQEEFHTAAVSTAMKKVFRVYQGQQPGTCMGSKRSQVSSPCSRKKPRMGQQVLDNFFRSHISTDAHSLNSAAQ [Y425F] | -0.11 |
| MRKPRAAVGSGHRKQAASQEGRQKHAKNNSQAKPSACDGLARQPEEVVLQASVSSYHLFRDVAEVTAFRGSLLSWYDQEKRDLPWRRRAEDEMDLDRRAYAVWVSEVMLQQTQVATVINYYTGWMQKWPTLQDLASASLEEVNQLWAGLGYYSRGRRLQEGARKVVEELGGHMPRTAETLQQLLPGVGRYTAGAIASIAFGQATGVVDGNVARVLCRVRAIGADPSSTLVSQQLWGLAQQLVDPARPGDFNQAAMELGATVCTPQRPLCSQCPVESLCRARQRVEQEQLLASGSLSGSPDVEECAPNTGQCHLCLPPSEPWDQTLGVVNFPRKASRKPPREESSATCVLEQPGALGAQILLVQRPNSGLLAGLWEFPSVTWEPSEQLQRKALLQELQRWAGPLPATHLRHLGEVVHTFSHIKLTYQVYGLALEGQTPVTTVPPGARWLTQEEFHTAAVSKAMKKVFRVYQGQQPGTCMGSKRSQVSSPCSRKKPRMGQQVLDNFFRSHISTDAHSLNSAAQ [T460K] | -0.0077 |

Reference: the supplement of paper PMC11908140
